Reference: patent publication US20240228562A1, “NOVEL LIPOCALIN MUTEINS SPECIFIC FOR CONNECTIVE TISSUE GROWTH FACTOR (CTGF)” (PIERIS PHARMACEUTICALS GMBH, priority 2021, published 2024)

T1: CTGF (Homo sapiens, UniProt P29279)
T1 sequence (P29279 27-349): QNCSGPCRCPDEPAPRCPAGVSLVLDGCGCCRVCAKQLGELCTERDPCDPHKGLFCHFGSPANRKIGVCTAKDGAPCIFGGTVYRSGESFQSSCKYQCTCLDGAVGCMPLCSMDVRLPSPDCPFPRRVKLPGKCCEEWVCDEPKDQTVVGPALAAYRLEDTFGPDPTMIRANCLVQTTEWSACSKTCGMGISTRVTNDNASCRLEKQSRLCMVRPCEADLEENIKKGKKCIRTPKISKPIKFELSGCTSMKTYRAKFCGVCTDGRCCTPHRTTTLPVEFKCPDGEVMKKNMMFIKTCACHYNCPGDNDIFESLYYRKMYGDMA


Legend:
CTGF = molecular target: T1, CTGF; assay: ELISA-based competition assay with anti-CTGF antibody; format: binding; conditions: data not shown
[1] = system: CCL-206 lung fibroblasts co-cultured with primary murine Epcam-positive epithelial progenitor cells; assay: Lung organoid formation model; format: cell-based; conditions: 14 days treatment; nintedanib 100 nM; SEQ ID NO: 74 at 100 nM
Method: The effect of CTGF-targeting lipocalin muteins was analyzed using an organoid model for lung regeneration. In this model, CCL-206 lung fibroblasts are co-cultured with freshly isolated primary murine Epcam-positive epithelial progenitor cells, and the number of formed organoids is analyzed after 14 days. TGF-b1 pre-treatment of CCL-206 fibroblasts leads to an impaired organoid formation and resembles an impairment of lung regeneration as for example observed in lung disease, such as IPF. The impaired formation of organoids can be rescued by treatment with different drugs, such as nintedanib, which is used as a positive control in this model. […] Analysis of organoid numbers confirmed the impairment of organoid formation by TGF-b1 stimulation.

Row | Competition with antibody of SEQ ID NOs: 60 and 61 for binding to CTGF (CTGF) | Molecule | Effect on TGF-b1 impaired organoid formation [1]
1 | competed with the antibody | SEQ ID NO: 23: optimized CTGF-binding hNGAL lipocalin mutein (protein, lipocalin mutein) QDSTSDLIPAPPLSKVPLQQNFQDNQFQGKWYVVGVAGNAILRPDKQPAKMFATIYELKEDKSYDVTSVRFEAKSCKYTIKTFVPGSQPGEFTSGQIKSAPGQTSTLVRVVSTNYNQHAMVFFKHVSQNREIFVITLYGRTKELTSELKENFIRFSKSLGLPENHIVFPVPIDQCIDG | 
2 |  | SEQ ID NO: 74: fusion protein comprising two CTGF-binding lipocalin muteins (protein, fusion protein) QDSTSDLIPAPPLSKVPLQQNFQDNQFQGKWYVVGLAGNAILREDKQPAKMFATIYELKEDKSYDVTSVRFEAKSCKYTIKTFVPGSQPGEFTAGYIKSAPGQTSTLVRVVSTNYNQHAMVFFKHVTQNREIFVITLYGRTKELTSELKENFIRFSKSLGLPENHIVFPVPIDQCIDGGGGGSGGGGSGGGGSQDSTSDLIPAPPLSKVPLQQNFQDNQFQGKWYVVGWAGNVKLREDKQPQKMSATIYELKEDKSYDVTEVVFEQKKCHYIIKTFVPGSQPGEFTAGDIKSPPGYTSSLVRVVSTNYNQHAMVFFKKVSQNREFFWITLYGRTKELTSELKENFIRFSKSLGLPENHIVFPVPIDQCIDG | even stronger trend for improved organoid formation
